In US20170281764A1:

How the values were obtained:
[1] = target: CD155 on K562 cells (human) (UniProt P15151); experiment: flow cytometry of K562 cells stained with APC-labelled anti-CD155 (clone SKII.4 per paragraph 220); percent of cells in the marker gate from about 2x10^1 to 10^4
[2] = target: human TIGIT on cells (Jurkat-TIGIT cells; human T cells, NK cells and other blood cells) (human) (UniProt Q495A1); experiment: flow cytometry of human PBMCs, PE anti-TIGIT (clone MBSA43 per paragraph 220) against A488 anti-CD56; CD56+ TIGIT+ gate, unit not given; middle panel (second of 3 donors)
human TIGIT on cells (Jurkat-TIGIT cells; human T cells, NK cells and other blood cells) (human), sequence (Q495A1 22-244): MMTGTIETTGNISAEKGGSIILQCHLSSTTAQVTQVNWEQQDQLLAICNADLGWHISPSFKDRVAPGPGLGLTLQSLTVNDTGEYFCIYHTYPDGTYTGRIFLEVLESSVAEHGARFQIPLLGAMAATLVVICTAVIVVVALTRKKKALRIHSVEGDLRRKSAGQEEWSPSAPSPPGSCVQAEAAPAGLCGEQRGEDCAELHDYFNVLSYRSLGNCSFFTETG

[3] = target: human TIGIT on cells (Jurkat-TIGIT cells; human T cells, NK cells and other blood cells) (human) (UniProt Q495A1); experiment: flow cytometry of human PBMCs, PE anti-TIGIT (clone MBSA43 per paragraph 220) against A488 anti-CD56; CD56+ TIGIT+ gate, unit not given; right panel (third of 3 donors)
[4] = target: human TIGIT on cells (Jurkat-TIGIT cells; human T cells, NK cells and other blood cells) (human) (UniProt Q495A1); experiment: flow cytometry of human PBMCs, PE anti-TIGIT (clone MBSA43 per paragraph 220) against A488 anti-CD56; CD56+ TIGIT+ gate, unit not given; left panel (first of 3 donors)

CD155 on K562 cells (human), sequence (P15151 21-417 limits assumed): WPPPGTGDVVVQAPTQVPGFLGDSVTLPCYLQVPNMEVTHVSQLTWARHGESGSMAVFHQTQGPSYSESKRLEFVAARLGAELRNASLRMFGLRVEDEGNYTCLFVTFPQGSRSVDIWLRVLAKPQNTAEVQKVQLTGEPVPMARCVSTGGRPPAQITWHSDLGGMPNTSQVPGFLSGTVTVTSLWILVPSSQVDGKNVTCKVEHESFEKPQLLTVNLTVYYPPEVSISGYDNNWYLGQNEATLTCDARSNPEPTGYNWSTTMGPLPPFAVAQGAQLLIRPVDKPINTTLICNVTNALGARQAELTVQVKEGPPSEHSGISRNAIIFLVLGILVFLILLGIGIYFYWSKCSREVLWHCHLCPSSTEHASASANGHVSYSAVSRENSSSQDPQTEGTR

Substance | % CD155 [1] | TIGIT+ NK Cells [2] | TIGIT+ NK Cells [3] | TIGIT+ NK Cells [4]
CD155 - APC (antibody) | 98.5% | – | – | –
anti-human TIGIT antibody clone MBSA43 (commercial; eBiosciences / BioLegend) | – | 8.03 | 5.47 | 4.84
